Patent US20100196310A1, “METHODS OF TREATING CANCER BY ADMINISTERING HUMAN IL-18 COMBINATIONS” (SMITHKLINE BEECHAM CORPORATION, priority 2007, published 2010)
Where two headings read alike, the source gives them in different places.

Experiments:
[1] = cited from earlier work
[2] = test system: EL-4 murine T-lymphoma cells; experiment: IL-18 combination with doxorubicin in EL-4 T cell lymphoma (survival, increase in lifespan); type: in vivo, C57/BL/6 mice
Method: Studies were performed in female C57/BL/6 mice. As a general protocol, C57/BL mice were injected I.P. with 0.2 cc of stock EL-4 cells. EL-4 murine T-lymphoma cells were expanded in RPMI w/10% FCS. All animals were randomized to six or seven mice per study group with food and water ad libitum.
EL-4 cells were harvested on day 0, counted and implanted I.P. with 5×10^5 EL-4 lymphoma cells. Animals were randomized to treatment groups of 6/7 animals on Day 3. Doxorubicin was administered IV on Days 3 &10, pos-implantation. mIL-18 (SEQ ID NO:2) was administered S.C. on Days 3-16. The animals were observed daily for toxicity and mortality.
All animals tolerated dosing schedule and levels well by gross observation. On day 16, all dosing was terminated, and median vehicle death occurred on day 17.5. All vehicle mice expired between days 16-18 post-implantation. Increase in lifespan was calculated by study group/vehicle group—1×100%. For mIL-18 (SEQ ID NO:2) combination therapy with doxorubicin in EL-4 T cell lymphoma, the data were analyzed with respect to median survival time and increase in lifespan.

NK cells [3] = experiment: NK cytotoxicity assay in the EL-4 T-cell lymphoma model; conditions: FIG. 12; 21 hours post-treatment
[4] = test system: murine colon carcinoma, Colo 26; experiment: IL-18 and 5-FU combination therapy in syngeneic model of murine colon cancer Colo26; type: in vivo, BALB/c mice; conditions: monotherapy with 5-FU alone or mIL-18 alone
Method: This study aimed to evaluate the efficacy of mIL-18 (SEQ ID NO:2) combination therapy with 5-fluorouracil (5-FU), as compared to monotherapy with 5-FU, or mIL-18 (SEQ ID NO:2) alone. Our study was performed in a well established syngeneic subcutaneous model of murine colon carcinoma, Colo 26, in BALB/c mice. The dosing with mIL-18 (SEQ ID NO:2) was performed daily with 10 μg/mouse s.c. on days 10-30 after tumor inoculation. The dosing with 5-FU was performed i.p. twice a week in the ascending dose: 27, 45 and 74 μg/mouse.
The data comparing tumor volumes in different treatment groups were evaluated at a selected representative time-point, and were expressed as mean+/−SD (FIG. 21), and as median+/−range (FIG. 22). The data were first checked for normal distribution (Gaussian approximation), and standard deviation values were compared to make sure that there is an equal variance. […] Therefore, a non-parametric test (Kruskal-Wallis analysis and Dunn's comparison test) was used for the statistical evaluation. […] FIG. 24 (median+/−SD) and FIG. 25 (mean+/−SD) show the effect of IL-18 and 5-FU combination therapy in same Colo26 syngeneic colon tumor model. […]
Survival of mice bearing Colo26 in different treatment groups was plotted in a Kaplan-Meyer survival curve analysis, and evaluated by Logrank test, and is shown in FIG. 26. […]

MOPC-315 plasmacytoma = experiment: IL-18 monotherapy in advanced MOPC-315 plasmacytoma model; type: in vivo, mice
NK cells [5] = test system: NK cells

Q: For “human IL-18: recombinant mature form of human interleukin-18, expressed in a non-pathogenic strain of Escherichia coli”, which “toxicity at the highest dose tested” value ([1]; 2000 μg/kg administered weekly for up to 24 weeks, patients with renal cell carcinoma and metastatic melanoma) is on record?
A: Its value is “no significant toxicity”.

Q: And the maximum tolerated dose ([1]; doses up to 2000 μg/kg weekly for up to 24 weeks)?
A: The maximum tolerated dose was “not identified”.

Q: For `COc1cccc2c1C(=O)c1c(O)c3c(c(O)c1C2=O)C[C@@](O)(C(=O)CO)C[C@@H]3O[C@H]1C[C@H](N)[C@H](O)[C@H](C)O1` [doxorubicin, Doxorubicin, reference compound], which increase in lifespan ([2]; doxorubicin monotherapy, 12 mg/kg, IV days 3 & 10) is on record?
A: The increase in lifespan was “minimal increase in lifespan”.

Q: And the NK cytotoxicity (NK cells [3])?
A: The NK cytotoxicity was “impaired”.

Q: For `O=c1[nH]cc(F)c(=O)[nH]1` [5-FU, 5-fluorouracil, reference compound], which “therapeutic effect on tumor growth compared to control” value [4] is on record?
A: The value was “did not show a therapeutic effect better than a control”.

B1: mIL-18: Recombinant murine IL-18 (SEQ ID NO:2), used in the pre-clinical studies (protein)
chain: NFGRLHCTTAVIRNINDQVLFVDKRQPVFEDMTDIDQSASEPQTRLIIYMYKDSEVRGLAVTLSVKDSKMSTLSCKNKIISFEEMDPPENIDDIQSDLIFFQKRVPGHNKMEFESSLYEGHFLACQKEDDAFKLILKKKDENGDKSVMFTLTNLHQS
modifications: Murine
Q: Which increase in lifespan ([2]; IL-18 monotherapy at 1, 5 and 25 ug/dose, S.C. days 3-16) does the source give for B1 here?
A: The increase in lifespan was “did not show any increase in lifespan”.

Q: And the “therapeutic effect on tumor growth compared to control” value [4]?
A: Its value is “did not show a therapeutic effect better than a control”.

Q: And the anti-tumor effect (MOPC-315 plasmacytoma; advanced tumor, 5 mg/Kg daily for approximately 30 days)?
A: The anti-tumor effect was “reproducible tumor regressions and cure”.

Q: What about the “outcome of rechallenge with parental tumor” value (MOPC-315 plasmacytoma; after cure by murine IL-18) of the same molecule?
A: The value was “tumor rejection”.

Q: What about the “anti-tumor effect in SCID mice” value (MOPC-315 plasmacytoma; severe combined immunodeficient mice bearing advanced MOPC-315 tumors, similar schedule) of the same molecule?
A: Its value is “failed to regress”.

Q: And the NK cytotoxicity (NK cells [5])?
A: The NK cytotoxicity was “robust NK cytotoxicity”.
